Assay results published in patent US20200024330A1 (published 2020).
Positions count from the first letter of the chain named.

B1: 1456_P20 (PG20) (antibody, human IgG1, kappa, V domains shown)
VH: QVRLVQSGPEVKKPGSSVTVSCQASGGTFSSYAFTWVRQAPGQGLEWLGMVTPIFGEAKYSQRFEGRVTITADESTSTTSIELRGLTSEDTAIYYCARDRRAVPIATDNWLDPWGQGTLVTVSS
VL: DIQLTQSPSSLSASVGDRVSITCRASQTINNYLNWYQQTPGKAPKLLIYGASNLQNGVPSRFSGSGSGTDFTLTISSLQPEDFATYYCQQSFSTPRTFGQGTRLDIKR
B2: 1460_G14 (PGG14) (antibody, V domains shown)
VH: QVLLVQSGTEVKKPGSSVKVSCQASGGAFSSYAFSWVRQAPGQGLEWMGMITPVFGETKYAPRFQGRLTLTAEESLSTTYMELRSLTSDDTAFYYCTRDRRVVPMATDNWLDPWGQGTLVTVSS
VL: B1 VL with S20T, I21V, N30H, N31T, T39I, N53T, N56S, S76N, F92Y
B3: 1456_P20 (PG20) (antibody, V domains shown)
VH: B1 VH
VL: DIQLTQSPSSLSASVGDRVSITCRASQTINNYLNWYQQTPGKAPKLLIYGASNLQNGVPSRFSGSGSGTDFTLTISSLQPEDFATYYCQQSFSTPRTFGQGTRLDIK
notes: also called B cell culture plate 1456 well P20
B4: 1460_G14 (PGG14) (antibody, human IgG1, kappa, V domains shown)
VH: B2 VH
VL: B1 VL with S20T, I21V, N30H, N31T, T39I, N53T, N56S, S76N, F92Y
B5: 1495_C14 (PGC14) (antibody, human IgG1, lambda, V domains shown)
VH: DGHLVQSGVEVKKTGATVKISCKVSGYSFIDYYLHWVQRAPGKGLEWVGLIDPENGEARYAEKFQGRVTIIADTSIDTGYMEMRSLKSEDTAVYFCAAGAVGADSGSWFDPWGQGTLVTVSS
VL: SYELTQPPSVSVSPGQTASITCSGSKLGDKYVSWYQLRPGQSPILVMYENDRRPSGIPERFSGSNSGDTATLTISGTQALDEADFYCQAWETTTTTFVFFGGGTQLTVLG
B6: 1495_C14 (PGC14) (antibody, V domains shown)
VH: B5 VH
VL: SYELTQPPSVSVSPGQTASITCSGSKLGDKYVSWYQLRPGQSPILVMYENDRRPSGIPERFSGSNSGDTATLTISGTQALDEADFYCQAWETTTTTFVFFGGGTQLTVL
notes: also called B cell culture plate 1495 well C14
B7: 1460_G14 (PGG14) (antibody, V domains shown)
VH: B2 VH
VL: B3 VL with S20T, I21V, N30H, N31T, T39I, N53T, N56S, S76N, F92Y
notes: also called B cell culture plate 1460 well G14
B8: 1443_C16 (PG16) (TCN-116) (antibody, V domains shown)
VH: QEQLVESGGGVVQPGGSLRLSCLASGFTFHKYGMHWVRQAPGKGLEWVALISDDGMRKYHSDSMWGRVTISRDNSKNTLYLQFSSLKVEDTAMFFCAREAGGPIWHDDVKYYDFNDGYYNYHYMDVWGKGTTVTVSS
VL: QSALTQPASVSGSPGQTITISCNGTSSDVGGFDSVSWYQQSPGKAPKVMVFDVSHRPSGISNRFSGSKSGNTASLTISGLHIEDEGDYFCSSLTDRSHRIFGGGTKVTVLG
B9: 1496_C09 (PG9) (TCN-109) (antibody, V domains shown)
VH: QRLVESGGGVVQPGSSLRLSCAASGFDFSRQGMHWVRQAPGQGLEWVAFIKYDGSEKYHADSVWGRLSISRDNSKDTLYLQMNSLRVEDTATYFCVREAGGPDYRNGYNYYDFYDGYYNYHYMDVWGKGTTVTVSS
VL: QSALTQPASVSGSPGQSITISCNGTSNDVGGYESVSWYQQHPGKAPKVVIYDVSKRPSGVSNRFSGSKSGNTASLTISGLQAEDEGDYYCKSLTSTRRRVFGTGTKLTVLG

How the values were obtained:
[1] = biological target: HIV-1 93UG077 envelope protein (Env) on pseudovirus (HIV-1 isolate 93UG077); assay: cell-based or functional assay
[2] = biological target: HIV-1 92BR020 envelope protein (Env) on pseudovirus (HIV-1 isolate 92BR020); assay: cell-based or functional assay
[3] = biological target: HIV-1 APV-13 envelope protein (Env) on pseudovirus (HIV-1 isolate APV-13); assay: cell-based or functional assay
[4] = biological target: HIV-1 APV-17 envelope protein (Env) on pseudovirus (HIV-1 isolate APV-17); assay: cell-based or functional assay
[5] = biological target: HIV-1 APV-6 envelope protein (Env) on pseudovirus (HIV-1 isolate APV-6); assay: cell-based or functional assay
[6] = biological target: HIV-1 93IN905 envelope protein (Env) on pseudovirus (HIV-1 isolate 93IN905); assay: cell-based or functional assay
[7] = biological target: HIV-1 IAVI-C18 envelope protein (Env) on pseudovirus (HIV-1 isolate IAVI-C18); assay: cell-based or functional assay
[8] = biological target: HIV-1 IAVI-C22 envelope protein (Env) on pseudovirus (HIV-1 isolate IAVI-C22); assay: cell-based or functional assay
[9] = biological target: HIV-1 IAVI-C3 envelope protein (Env) on pseudovirus (HIV-1 isolate IAVI-C3); assay: cell-based or functional assay
[10] = biological target: HIV-1 92UG024 envelope protein (Env) on pseudovirus (HIV-1 isolate 92UG024); assay: cell-based or functional assay
[11] = biological target: HIV-1 92UG005 envelope protein (Env) on pseudovirus (HIV-1 isolate 92UG005); assay: cell-based or functional assay
[12] = biological target: HIV-1 92TH021 envelope protein (Env) on pseudovirus (HIV-1 isolate 92TH021); assay: cell-based or functional assay
[13] = biological target: HIV-1 CMU02 envelope protein (Env) on pseudovirus (HIV-1 isolate CMU02); assay: cell-based or functional assay
[14] = biological target: aMLV envelope protein on pseudovirus (negative control) (aMLV); assay: cell-based or functional assay
[15] = biological target: HIV-1 94UG103 envelope protein (Env) on pseudovirus (HIV-1 isolate 94UG103); assay: cell-based or functional assay
[16] = biological target: HIV-1 92RW020 envelope protein (Env) on pseudovirus (HIV-1 isolate 92RW020); assay: cell-based or functional assay
[17] = biological target: aMLV envelope protein on pseudotyped virus (negative control) (aMLV); assay: cell-based or functional assay
[18] = biological target: T1, recombinant monomeric gp120 of HIV-1 isolate JR-CSF (HIV-1 isolate JR-CSF, UniProt P20871 32-503); assay: anti-gp120 ELISA, B cell culture supernatant on captured gp120
T1 construct: domain: gp120

Binder	IC50 (µg/mL), pseudovirus neutralization [1] [µg/mL]	IC50 (µg/mL), pseudovirus neutralization [2] [µg/mL]	IC50 (µg/mL), pseudovirus neutralization [3] [µg/mL]	IC50 (µg/mL), pseudovirus neutralization [4] [µg/mL]	IC50 (µg/mL), pseudovirus neutralization [5] [µg/mL]	IC50 (µg/mL), pseudovirus neutralization [6] [µg/mL]	IC50 (µg/mL), pseudovirus neutralization [7] [µg/mL]	IC50 (µg/mL), pseudovirus neutralization [8] [µg/mL]	IC50 (µg/mL), pseudovirus neutralization [9] [µg/mL]	IC50 (µg/mL), pseudovirus neutralization [10] [µg/mL]	IC50 (µg/mL), pseudovirus neutralization [11] [µg/mL]	IC50 (µg/mL), pseudovirus neutralization [12] [µg/mL]	IC50 (µg/mL), pseudovirus neutralization [13] [µg/mL]	IC50 (µg/mL), pseudovirus neutralization [14] [µg/mL]	IC50 (µg/mL), pseudovirus neutralization [15] [µg/mL]	IC50 (µg/mL), pseudovirus neutralization [16] [µg/mL]	IC50, pseudovirus neutralization, 1 hour Virus/Ab Incubation [17] [µg/mL]	IC50, pseudovirus neutralization, 18 hour Virus/Ab Incubation [17] [µg/mL]	ELISA OD [18] [OD]
B1	> 50	> 50	> 50	> 50	25.8	> 50	> 50	> 50	> 50	> 50	> 50	> 50	> 50	> 50	> 50	50			
B2																	> 50	> 50	
B3																			3.78
B4	> 50	> 50	> 50	> 50	> 50	> 50	> 50	> 50	> 50	> 50	> 50	> 50	> 50	> 50	> 50	> 50			
B5	> 50	0.64	> 50	> 50	7.41	> 50	> 50	> 50	9.5	> 50	> 50	> 50	> 50	> 50	> 50	28.6			
B6																			3.76
B7																			3.49
B8	> 50	> 50	> 50	> 50	0.08	0.1	0.007	0.069	14.8	> 50	> 50	0.13	> 50	> 50	0.008	0.004			
B9	> 50	> 50	> 50	26.4	0.09		0.05		12.9		> 50		> 50	> 50	0.17	0.06			
